For experiment [1], the target named is human CD3 on human T cells (human) (UniProt P07766). The experiment in a line: flow cytometry competition on purified human T cells; competitor 2 ug/mL AF488-labelled SP34-2. For orientation: A flow cytometer gives signals particle by particle.
Experiment [2] has the same target. The experiment in a line: saturation binding on human pan T cells, flow cytometry (KdT).
Experiment [3] addresses Human CD33 ECD-HSA (human). Description: SPRi off-rate screen (IBIS MX96).
Experiment [4] addresses Human CD33-V-HSA (human). The experiment in a line: SPRi off-rate screen (IBIS MX96).

The term Kd denotes the constant that tells how readily two partners part at equilibrium. The low end stands for higher affinity, the high end for lower affinity. In general, koff refers to a measure of how fast the partners let go of each other.

Sequence of human CD3 on human T cells (human) (P07766 23-207 limits assumed): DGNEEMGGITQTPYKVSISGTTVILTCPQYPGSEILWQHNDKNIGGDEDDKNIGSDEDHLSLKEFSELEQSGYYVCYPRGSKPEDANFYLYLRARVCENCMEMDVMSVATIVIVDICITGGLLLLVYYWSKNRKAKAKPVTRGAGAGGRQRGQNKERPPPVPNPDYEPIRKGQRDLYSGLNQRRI

The substance “SP34-2, commercial mouse anti-human CD3 antibody” showed an IC50 (read off the curve) in experiment [1] of 1 µg/mL. Moreover, in experiment [2], the Kd came out at 5.6 nM.
Turning to WM53 (antibody), the koff in experiment [3] was determined as 0.00237 s⁻¹; in experiment [4] it was 0.0378 s⁻¹.

(Values after US20230322924A1.)
